Assay results from patent US20260242478A1 (published 2026).

B1: Phage-3548 (peptide)
peptide: TPPFCIPKWMCQGF
notes: Clonal phage of the Peptide-180 library
B2: Phage-3556 (peptide)
peptide: QSMMCIPSWMCVGF
notes: as for B1
B3: Phage-3552 (peptide)
peptide: VDRLCVPNWMCMGL
notes: as for B1
B4: Phage-3555 (peptide)
peptide: LAVRCIPEWMCYGL
notes: as for B1
B5: Phage-3557 (peptide)
peptide: VVPLCVPMWMCSPM
notes: as for B1
B6: Phage-3550 (peptide)
peptide: MERMCVPSWMCTGF
notes: as for B1
B7: Phage-3558 (peptide)
peptide: VEPACVPLWMCFGL
notes: as for B1
B8: Phage-3554 (peptide)
peptide: AGMMCTPPWMCFGF
notes: as for B1
B9: Phage-3559 (peptide)
peptide: TYFRCEPSWMCTGL
notes: as for B1
B10: Phage-3551 (peptide)
peptide: IEKVCVPAWMCMGF
notes: as for B1
B11: Phage-3547 (peptide)
peptide: TERVCVPDWMCAGF
notes: as for B1
B12: Phage-3561 (peptide)
peptide: VVNFCKPQWMCSGF
notes: as for B1
B13: Phage-3549 (peptide)
peptide: MNIMCRPVWMCTGL
notes: as for B1
B14: Phage-3560 (peptide)
peptide: MERWCIPVWMCQGL
notes: as for B1
B15: Phage-3537 (peptide)
peptide: FEVACIPQWMCDGF
notes: Tested as crude clonal phage supernatant
B16: Phage-3539 (peptide)
peptide: DVRMCVPEWMCSGF
notes: as for B15
B17: Phage-3538 (peptide)
peptide: IARTCVPAWMCSGF
notes: as for B15
B18: Phage-3542 (peptide)
peptide: LYVKCSPEWMCIGF
notes: as for B15
B19: Phage-3543 (peptide)
peptide: VTPQCVPMWMCTGF
notes: as for B15
B20: Phage-3546 (peptide)
peptide: DARACVPEWMCYGF
notes: as for B15
B21: Phage-3541 (peptide)
peptide: ENLICKPAWMCVGF
notes: as for B15
B22: Phage-3540 (peptide)
peptide: VKPMCVPEWMCSGL
notes: as for B15
B23: Phage-3544 (peptide)
peptide: FLQACKPPWMCTGF
notes: as for B15
B24: Phage-3545 (peptide)
peptide: VVKACIPEWMCSGF
notes: as for B15
B25: Phage-3570 (peptide)
peptide: VDKACTPAWMCTGF
notes: Peptide-180 library clone, tested as clonal phage supernatant with the peptide fused to pIII of the bacteriophage
B26: Phage-3566 (peptide)
peptide: VSTMCVPEWMCGGF
notes: as for B25
B27: Phage-3574 (peptide)
peptide: EDIKCIPRWMCEGF
notes: as for B25
B28: Phage-3567 (peptide)
peptide: DAMLCRPSWMCDGF
notes: as for B25
B29: Phage-3562 (peptide)
peptide: DDIRCEPIWMCTGF
notes: as for B25
B30: Phage-3569 (peptide)
peptide: VAQWCTPSWMCDGF
notes: as for B25
B31: Phage-3565 (peptide)
peptide: ELLKCVPQWMCTGF
notes: as for B25
B32: Phage-3573 (peptide)
peptide: AWMRCEPAWMCVGF
notes: as for B25
B33: Phage-3563 (peptide)
peptide: EHRICVPQWMCTGF
notes: as for B25
B34: Phage-3568 (peptide)
peptide: PEAYCVPSWMCTGF
notes: as for B25
B35: Phage-3571 (peptide)
peptide: EMPLCIPQWMCGGF
notes: as for B25
B36: Phage-3564 (peptide)
peptide: SPSYCVPKWMCVGF
notes: as for B25
B37: Phage-3572 (peptide)
peptide: VPTLCKPSWMCYGF
notes: as for B25

Target: T1, Anti-PSMA Fab (biotinylated (site not stated))
T1 construct: also called 006 PSMA Fab
Assay: clonal phage ELISA on biotinylated PSMA Fab captured on neutravidin plate, anti-M13 HRP detection

| Binder | Phage binding ELISA signal, Anti-PSMA Fab |
| --- | --- |
| B1 | 1.65 |
| B2 | 1.64 |
| B3 | 1.64 |
| B4 | 1.64 |
| B5 | 1.64 |
| B6 | 1.64 |
| B7 | 1.64 |
| B8 | 1.64 |
| B9 | 1.64 |
| B10 | 1.64 |
| B11 | 1.65 |
| B12 | 1.64 |
| B13 | 1.65 |
| B14 | 1.64 |

Target: T2, PSMA Fab (SEQ ID NOs: 19, 20)
T2 construct: also called Anti-PSMA Fab; 006 PSMA Fab
Assay: clonal phage ELISA, biotinylated PSMA Fab on neutravidin plate, anti-M13 HRP detection;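 further: crude clonal phage supernatants added to wells pretreated with blocking buffer either with or without PSMA antigen, bound phage read after washing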
Experimental: (§1) Clonal phage were harvested as crude supernatants and screened via standard ELISAs. […] Prior to the addition of clonal phage. wells were incubated with blocking buffer and PSMA antigen or blocking buffer alone. Without washing or aspirating, clonal phage supernatants were then added to the wells and incubated for a short time. Wells were then washed followed by detection of bound phage using a horse radish conjugated anti-M13 antibody.

| Binder | Phage binding ELISA signal, Anti-PSMA Fab |
| --- | --- |
| B15 | 1.66 |
| B16 | 1.65 |
| B17 | 1.65 |
| B18 | 1.65 |
| B19 | 1.65 |
| B20 | 1.65 |
| B21 | 1.65 |
| B22 | 1.65 |
| B23 | 1.65 |
| B24 | 1.65 |

Target: T3, PSMA Fab (006 PSMA Fab)
T3 construct: also called Anti-PSMA Fab
Assay: clonal phage ELISA on biotinylated PSMA Fab captured on neutravidin, anti-M13 HRP detection;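 further: crude clonal phage supernatants added to wells pretreated with PSMA antigen in blocking buffer or with blocking buffer only, then briefly incubated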
Experimental: as §1

| Binder | Phage binding ELISA signal, Anti-PSMA Fab |
| --- | --- |
| B25 | 1.62 |
| B26 | 1.63 |
| B27 | 1.62 |
| B28 | 1.62 |
| B29 | 1.64 |
| B30 | 1.62 |
| B31 | 1.63 |
| B32 | 1.62 |
| B33 | 1.64 |
| B34 | 1.62 |
| B35 | 1.62 |
| B36 | 1.64 |
| B37 | 1.62 |

Target: T1, Anti-PSMA Fab
Assay: clonal phage ELISA on captured PSMA Fab, wells pre-incubated with PSMA antigen as competitor, anti-M13 HRP detection;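 further: crude clonal phage supernatants added, with no intervening wash, to wells preincubated with PSMA antigen in blocking buffer, incubated briefly, then washed before detecting bound phage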
Experimental: as §1

| Binder | Phage binding ELISA signal, Anti-PSMA Fab with PSMA antigen |
| --- | --- |
| B1 | 0.117 |
| B2 | 0.0679 |
| B3 | 0.072 |
| B4 | 0.0644 |
| B5 | 0.0867 |
| B6 | 0.089 |
| B7 | 0.0619 |
| B8 | 0.0664 |
| B9 | 0.073 |
| B10 | 0.238 |
| B11 | 0.0944 |
| B12 | 0.0682 |
| B13 | 0.0993 |
| B14 | 0.0734 |

Target: T2, PSMA Fab (SEQ ID NOs: 19, 20)
Assay: clonal phage ELISA on captured PSMA Fab, wells pre-incubated with PSMA antigen as competitor
Experimental: as §1

| Binder | Phage binding ELISA signal, Anti-PSMA Fab with PSMA antigen |
| --- | --- |
| B15 | 0.118 |
| B16 | 0.0753 |
| B17 | 0.102 |
| B18 | 0.0709 |
| B19 | 0.105 |
| B20 | 0.0805 |
| B21 | 0.0738 |
| B22 | 0.0907 |
| B23 | 0.146 |
| B24 | 0.125 |

Target: T3, PSMA Fab (006 PSMA Fab)
Assay: as above
Experimental: as §1

| Binder | Phage binding ELISA signal, Anti-PSMA Fab in presence of PSMA |
| --- | --- |
| B25 | 0.0716 |
| B26 | 0.122 |
| B27 | 0.0923 |
| B28 | 0.0871 |
| B29 | 0.0657 |
| B30 | 0.0794 |
| B31 | 0.126 |
| B32 | 0.0695 |
| B33 | 0.0676 |
| B34 | 0.0764 |
| B35 | 0.0691 |
| B36 | 0.0712 |
| B37 | 0.0941 |
